Reference: article PMC10487539, “Glutaryl-CoA Dehydrogenase Misfolding in Glutaric Acidemia Type 1” (International Journal of Molecular Sciences, 2023)

Tests used:
[1] = molecular target: the molecule itself; assay: SEC; self-association; MBPTrap eluate on HiLoad 16/600 Superdex 200, 20 mM HEPES pH 7.0, 200 mM NaCl, 4 °C; higher oligomers or aggregates 45-55 mL, tetramers 65-75 mL, dimers 75-85 mL, monomers 85-95 mL
[2] = molecular target: the molecule itself; assay: native gel or EMSA; self-association; BN-PAGE and Western blot of proteins purified by affinity chromatography; bands of monomer, dimer and tetramer as percent of total
[3] = molecular target: the molecule itself; assay: SEC; self-association; as a1 but in 10 mM potassium phosphate buffer with 10% glycerol (used for A433V only), 4 °C

B1: recombinant human glutaryl-CoA dehydrogenase, wild type, MBP fusion (enzyme)
chain: RPEFDWQDPLVLEEQLTTDEILIRDTFRTYCQERLMPRILLANRNEVFHREIISEMGELGVLGPTIKGYGCAGVSSVAYGLLARELERVDSGYRSAMSVQSSLVMHPIYAYGSEEQRQKYLPQLAKGELLGCFGLTEPNSGSDPSSMETRAHYNSSNKSYTLNGTKTWITNSPMADLFVVWARCEDGCIRGFLLEKGMRGLSAPRIQGKFSLRASATGMIIMDGVEVPEENVLPGASSLGGPFGCLNNARYGIAWGVLGASEFCLHTARQYALDRMQFGVPLARNQLIQKKLADMLTEITLGLHACLQLGRLKDQDKAAPEMVSLLKRNNCGKALDIARQARDMLGGNGISDEYHVIRHAMNLEAVNTYEGTHDIHALILGRAITGIQAFTASK
notes: glutaryl-CoA dehydrogenase (GCDH), human cDNA in pMAL-c2X; the precursor has 438 amino acids and the first 44 are cut on mitochondrial import; No cleavage of MBP is described; The printed masses (tetramer 173.2 kDa) count without MBP; also called GCDH; WT; not shown: MBP, N-terminal, kept
stoichiometry N [1]: 4

B2: recombinant human GCDH variant R88C, MBP fusion (enzyme)
chain: RPEFDWQDPLVLEEQLTTDEILIRDTFRTYCQERLMPRILLANCNEVFHREIISEMGELGVLGPTIKGYGCAGVSSVAYGLLARELERVDSGYRSAMSVQSSLVMHPIYAYGSEEQRQKYLPQLAKGELLGCFGLTEPNSGSDPSSMETRAHYNSSNKSYTLNGTKTWITNSPMADLFVVWARCEDGCIRGFLLEKGMRGLSAPRIQGKFSLRASATGMIIMDGVEVPEENVLPGASSLGGPFGCLNNARYGIAWGVLGASEFCLHTARQYALDRMQFGVPLARNQLIQKKLADMLTEITLGLHACLQLGRLKDQDKAAPEMVSLLKRNNCGKALDIARQARDMLGGNGISDEYHVIRHAMNLEAVNTYEGTHDIHALILGRAITGIQAFTASK
notes: glutaryl-CoA dehydrogenase (GCDH), human cDNA in pMAL-c2X, patient variant; No cleavage of MBP is described; also called c.262C > T; not shown: MBP, N-terminal, kept
binding result [1]: binds

B3: recombinant human GCDH variant V400M, MBP fusion (enzyme)
chain: RPEFDWQDPLVLEEQLTTDEILIRDTFRTYCQERLMPRILLANRNEVFHREIISEMGELGVLGPTIKGYGCAGVSSVAYGLLARELERVDSGYRSAMSVQSSLVMHPIYAYGSEEQRQKYLPQLAKGELLGCFGLTEPNSGSDPSSMETRAHYNSSNKSYTLNGTKTWITNSPMADLFVVWARCEDGCIRGFLLEKGMRGLSAPRIQGKFSLRASATGMIIMDGVEVPEENVLPGASSLGGPFGCLNNARYGIAWGVLGASEFCLHTARQYALDRMQFGVPLARNQLIQKKLADMLTEITLGLHACLQLGRLKDQDKAAPEMVSLLKRNNCGKALDIARQARDMLGGNGISDEYHMIRHAMNLEAVNTYEGTHDIHALILGRAITGIQAFTASK
notes: glutaryl-CoA dehydrogenase (GCDH), human cDNA in pMAL-c2X, patient variant; No cleavage of MBP is described; also called c.1198G > A; not shown: MBP, N-terminal, kept
binding result [2]: binds

B4: recombinant human GCDH variant A433V, MBP fusion (enzyme)
chain: RPEFDWQDPLVLEEQLTTDEILIRDTFRTYCQERLMPRILLANRNEVFHREIISEMGELGVLGPTIKGYGCAGVSSVAYGLLARELERVDSGYRSAMSVQSSLVMHPIYAYGSEEQRQKYLPQLAKGELLGCFGLTEPNSGSDPSSMETRAHYNSSNKSYTLNGTKTWITNSPMADLFVVWARCEDGCIRGFLLEKGMRGLSAPRIQGKFSLRASATGMIIMDGVEVPEENVLPGASSLGGPFGCLNNARYGIAWGVLGASEFCLHTARQYALDRMQFGVPLARNQLIQKKLADMLTEITLGLHACLQLGRLKDQDKAAPEMVSLLKRNNCGKALDIARQARDMLGGNGISDEYHVIRHAMNLEAVNTYEGTHDIHALILGRAITGIQVFTASK
notes: glutaryl-CoA dehydrogenase (GCDH), human cDNA in pMAL-c2X, patient variant; No cleavage of MBP is described; also called c.1298C > T; not shown: MBP, N-terminal, kept
binding result [3]: binds

B5: recombinant human GCDH variant R227P, MBP fusion (enzyme)
chain: RPEFDWQDPLVLEEQLTTDEILIRDTFRTYCQERLMPRILLANRNEVFHREIISEMGELGVLGPTIKGYGCAGVSSVAYGLLARELERVDSGYRSAMSVQSSLVMHPIYAYGSEEQRQKYLPQLAKGELLGCFGLTEPNSGSDPSSMETRAHYNSSNKSYTLNGTKTWITNSPMADLFVVWAPCEDGCIRGFLLEKGMRGLSAPRIQGKFSLRASATGMIIMDGVEVPEENVLPGASSLGGPFGCLNNARYGIAWGVLGASEFCLHTARQYALDRMQFGVPLARNQLIQKKLADMLTEITLGLHACLQLGRLKDQDKAAPEMVSLLKRNNCGKALDIARQARDMLGGNGISDEYHVIRHAMNLEAVNTYEGTHDIHALILGRAITGIQAFTASK
notes: glutaryl-CoA dehydrogenase (GCDH), human cDNA in pMAL-c2X, patient variant; No cleavage of MBP is described; also called c.680G > C; source: could not be purified by size-exclusion chromatography; not shown: MBP, N-terminal, kept
binding result [2]: binds

B6: recombinant human GCDH variant M263V, MBP fusion (enzyme)
chain: RPEFDWQDPLVLEEQLTTDEILIRDTFRTYCQERLMPRILLANRNEVFHREIISEMGELGVLGPTIKGYGCAGVSSVAYGLLARELERVDSGYRSAMSVQSSLVMHPIYAYGSEEQRQKYLPQLAKGELLGCFGLTEPNSGSDPSSMETRAHYNSSNKSYTLNGTKTWITNSPMADLFVVWARCEDGCIRGFLLEKGMRGLSAPRIQGKFSLRASATGVIIMDGVEVPEENVLPGASSLGGPFGCLNNARYGIAWGVLGASEFCLHTARQYALDRMQFGVPLARNQLIQKKLADMLTEITLGLHACLQLGRLKDQDKAAPEMVSLLKRNNCGKALDIARQARDMLGGNGISDEYHVIRHAMNLEAVNTYEGTHDIHALILGRAITGIQAFTASK
notes: glutaryl-CoA dehydrogenase (GCDH), human cDNA in pMAL-c2X, patient variant; No cleavage of MBP is described; also called c.787A > G; not shown: MBP, N-terminal, kept
binding result [2]: binds

B7: recombinant human GCDH variant A421V, MBP fusion (enzyme)
chain: RPEFDWQDPLVLEEQLTTDEILIRDTFRTYCQERLMPRILLANRNEVFHREIISEMGELGVLGPTIKGYGCAGVSSVAYGLLARELERVDSGYRSAMSVQSSLVMHPIYAYGSEEQRQKYLPQLAKGELLGCFGLTEPNSGSDPSSMETRAHYNSSNKSYTLNGTKTWITNSPMADLFVVWARCEDGCIRGFLLEKGMRGLSAPRIQGKFSLRASATGMIIMDGVEVPEENVLPGASSLGGPFGCLNNARYGIAWGVLGASEFCLHTARQYALDRMQFGVPLARNQLIQKKLADMLTEITLGLHACLQLGRLKDQDKAAPEMVSLLKRNNCGKALDIARQARDMLGGNGISDEYHVIRHAMNLEAVNTYEGTHDIHVLILGRAITGIQAFTASK
notes: glutaryl-CoA dehydrogenase (GCDH), human cDNA in pMAL-c2X, patient variant; No cleavage of MBP is described; also called c.1262C > T; not shown: MBP, N-terminal, kept
binding result [1]: binds

B8: recombinant human GCDH variant A433E, MBP fusion (enzyme)
chain: RPEFDWQDPLVLEEQLTTDEILIRDTFRTYCQERLMPRILLANRNEVFHREIISEMGELGVLGPTIKGYGCAGVSSVAYGLLARELERVDSGYRSAMSVQSSLVMHPIYAYGSEEQRQKYLPQLAKGELLGCFGLTEPNSGSDPSSMETRAHYNSSNKSYTLNGTKTWITNSPMADLFVVWARCEDGCIRGFLLEKGMRGLSAPRIQGKFSLRASATGMIIMDGVEVPEENVLPGASSLGGPFGCLNNARYGIAWGVLGASEFCLHTARQYALDRMQFGVPLARNQLIQKKLADMLTEITLGLHACLQLGRLKDQDKAAPEMVSLLKRNNCGKALDIARQARDMLGGNGISDEYHVIRHAMNLEAVNTYEGTHDIHALILGRAITGIQEFTASK
notes: glutaryl-CoA dehydrogenase (GCDH), human cDNA in pMAL-c2X, patient variant; No cleavage of MBP is described; also called c.1298C > A; not shown: MBP, N-terminal, kept
binding result [1]: binds

B9: recombinant human GCDH variant E414K, MBP fusion (enzyme)
chain: RPEFDWQDPLVLEEQLTTDEILIRDTFRTYCQERLMPRILLANRNEVFHREIISEMGELGVLGPTIKGYGCAGVSSVAYGLLARELERVDSGYRSAMSVQSSLVMHPIYAYGSEEQRQKYLPQLAKGELLGCFGLTEPNSGSDPSSMETRAHYNSSNKSYTLNGTKTWITNSPMADLFVVWARCEDGCIRGFLLEKGMRGLSAPRIQGKFSLRASATGMIIMDGVEVPEENVLPGASSLGGPFGCLNNARYGIAWGVLGASEFCLHTARQYALDRMQFGVPLARNQLIQKKLADMLTEITLGLHACLQLGRLKDQDKAAPEMVSLLKRNNCGKALDIARQARDMLGGNGISDEYHVIRHAMNLEAVNTYKGTHDIHALILGRAITGIQAFTASK
notes: glutaryl-CoA dehydrogenase (GCDH), human cDNA in pMAL-c2X, patient variant; No cleavage of MBP is described; also called c.1240G > A; not shown: MBP, N-terminal, kept
binding result [1]: binds

B10: recombinant human GCDH variant R138G, MBP fusion (enzyme)
chain: RPEFDWQDPLVLEEQLTTDEILIRDTFRTYCQERLMPRILLANRNEVFHREIISEMGELGVLGPTIKGYGCAGVSSVAYGLLARELERVDSGYGSAMSVQSSLVMHPIYAYGSEEQRQKYLPQLAKGELLGCFGLTEPNSGSDPSSMETRAHYNSSNKSYTLNGTKTWITNSPMADLFVVWARCEDGCIRGFLLEKGMRGLSAPRIQGKFSLRASATGMIIMDGVEVPEENVLPGASSLGGPFGCLNNARYGIAWGVLGASEFCLHTARQYALDRMQFGVPLARNQLIQKKLADMLTEITLGLHACLQLGRLKDQDKAAPEMVSLLKRNNCGKALDIARQARDMLGGNGISDEYHVIRHAMNLEAVNTYEGTHDIHALILGRAITGIQAFTASK
notes: glutaryl-CoA dehydrogenase (GCDH), human cDNA in pMAL-c2X, patient variant; No cleavage of MBP is described; also called c.412A > G; not shown: MBP, N-terminal, kept
binding result [2]: binds
